Results: patent US20260265361A1 (PHRONTLINE BIOPHARMA SUZHOU, published 2026)

Experiments:
[1] = target: T1, recombinant human FcγRI protein (ACRO Biosystems, Cat. FCA-H52H1) (human, UniProt P12314 16-288, limits assumed); assay: BLI (ForteBio Octet Red 96), human FcγRI immobilised on HIS1K sensors, 100 nM antibody; FcγRI table
T1 construct: also called human FcγRI receptor

[2] = target: T2, recombinant human FcRn (ACROBiosystems Cat FCM-H8286) (human, UniProt P55899 24-297; P61769 21-119); assay: BLI (ForteBio Octet Red 96), human FcRn immobilised on SA sensors, pH 6.0 buffer, 100 nM antibody; FcRn table
T2 construct: also called human FcRn receptor

[3] = target: T1, recombinant human FcγRI protein (ACRO …); assay: BLI (ForteBio Octet Red 96), human FcγRI immobilised on HIS1K sensors, 100 nM antibody; FcγRI table, column Kdis
[4] = target: T2, recombinant human FcRn (ACROBiosystems …); assay: BLI (ForteBio Octet Red 96), human FcRn immobilised on SA sensors, pH 6.0 buffer, 100 nM antibody; FcRn table, column Kdis
[5] = target: T3, Recombinant human EGFR protein (ACRO Biosystems, EGR-H5222) (human, UniProt P00533 25-645); assay: ELISA, plate coated with recombinant human EGFR at 1 µg/mL, HRP-labelled secondary antibody, OD450; EGFR panel, table under the curves (unit from the concentration axis)
T3 construct: Bought protein

T1 sequence (P12314 16-288 limits assumed): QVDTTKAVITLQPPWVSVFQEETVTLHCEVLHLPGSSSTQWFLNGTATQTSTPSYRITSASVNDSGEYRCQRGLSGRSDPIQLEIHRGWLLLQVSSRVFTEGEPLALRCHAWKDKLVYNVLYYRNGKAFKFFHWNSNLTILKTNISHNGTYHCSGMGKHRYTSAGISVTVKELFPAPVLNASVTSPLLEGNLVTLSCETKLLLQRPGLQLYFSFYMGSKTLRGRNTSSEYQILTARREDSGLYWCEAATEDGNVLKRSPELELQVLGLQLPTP

Kd [1] [nM] | kon [1] [M⁻¹ s⁻¹] | Kd [2] [nM] | kon [2] [M⁻¹ s⁻¹] | koff [3] [s⁻¹] | koff [4] [s⁻¹] | EC50 [5] [µg/mL] | Binder
10 | 459000 | 14.4 | 1.82e+06 | 0.00461 | 0.0261 | 0.017 | Fab-Fc/Fab-Fc bispecific antibody (zalutumumab anti-EGFR A half-antibody / pertuzumab anti-HER2 B half-antibody), M1 combination (K2/H2) (bispecific antibody, No linker named between Fab and Fc; also called M1 mutant combination) heavy 1: not shown light 1: not shown heavy 2: EVQLVESGGGLVQPGGSLRLSCAASGFTFTDYTMDWVRQAPGKGLEWVADVNPNSGGSIYNQRFKGRFTLSVDRSKNTLYLQMNSLRAEDTAVYYCARNLGPSFYFDYWGQGTLVTVSSASTKGPSVFPLAPSSKSTSGGTAALGCLVKDYFPEPVTVSWNSGALTSGVHTFPAVLQSSGLYSLSSVVTVPSSSLGTQTYICNVNHKPSNTKVDKKVEPKSCDKTHTCPPCPAPELLGGPSVFLFPPKPKDTLMISRTPEVTCVVVDVSHEDPEVKFNWYVDGVEVHNAKTKPREEQYNSTYRVVSVLTVLHQDWLNGKEYKCKVSNKALPAPIEKTISKAKGQPREPQVYTLPPSREEMTKNQVSLSCAVKGFYPSDIAVEWESNGQPENNYKTTPPVLRSDGSFFLVSKLTVDKSRWQQGNVFSCSVMHEALHNHYTQKSLSLSPGK light 2: not shown
10 | 452000 | 17.6 | 1.69e+06 | 0.00453 | 0.0296 | 0.0206 | Fab-Fc/Fab-Fc bispecific antibody (zalutumumab anti-EGFR A half-antibody / pertuzumab anti-HER2 B half-antibody), M2 combination (K0/H8) (bispecific antibody, No linker named between Fab and Fc; also called M2 mutant combination) heavy 1: not shown light 1: not shown heavy 2: EVQLVESGGGLVQPGGSLRLSCAASGFTFTDYTMDWVRQAPGKGLEWVADVNPNSGGSIYNQRFKGRFTLSVDRSKNTLYLQMNSLRAEDTAVYYCARNLGPSFYFDYWGQGTLVTVSSASTKGPSVFPLAPSSKSTSGGTAALGCLVKDYFPEPVTVSWNSGALTSGVHTFPAVLQSSGLYSLSSVVTVPSSSLGTQTYICNVNHKPSNTKVDKKVEPKSCDKTHTCPPCPAPELLGGPSVFLFPPKPKDTLMISRTPEVTCVVVDVSHEDPEVKFNWYVDGVEVHNAKTKPREEQYNSTYRVVSVLTVLHQDWLNGKEYKCKVSNKALPAPIEKTISKAKGQPREPQVYTYPPSREEMTKNQVSLSCAVKGFYPSDIAVEWESNGQPENNYKTTPPVLDSDGSFFLVSKLTVDKSRWQQGNVFSCSVMHEALHNHYTQKSLSLSPGK light 2: not shown
10.3 | 455000 | 17.7 | 1.55e+06 | 0.00471 | 0.0274 | 0.0221 | Fab-Fc/Fab-Fc bispecific antibody (zalutumumab anti-EGFR A half-antibody / pertuzumab anti-HER2 B half-antibody), M3 combination (K2/H7) (bispecific antibody, No linker named between Fab and Fc; also called M3 mutant combination) heavy 1: not shown light 1: not shown heavy 2: EVQLVESGGGLVQPGGSLRLSCAASGFTFTDYTMDWVRQAPGKGLEWVADVNPNSGGSIYNQRFKGRFTLSVDRSKNTLYLQMNSLRAEDTAVYYCARNLGPSFYFDYWGQGTLVTVSSASTKGPSVFPLAPSSKSTSGGTAALGCLVKDYFPEPVTVSWNSGALTSGVHTFPAVLQSSGLYSLSSVVTVPSSSLGTQTYICNVNHKPSNTKVDKKVEPKSCDKTHTCPPCPAPELLGGPSVFLFPPKPKDTLMISRTPEVTCVVVDVSHEDPEVKFNWYVDGVEVHNAKTKPREEQYNSTYRVVSVLTVLHQDWLNGKEYKCKVSNKALPAPIEKTISKAKGQPREPQVYTYPPSREEMTKNQVSLSCAVKGFYPSDIAVEWESNGQPENNYKTTPPVLRSDGSFFLVSKLTVDKSRWQQGNVFSCSVMHEALHNHYTQKSLSLSPGK light 2: not shown
